Measurements reported in the supplement of paper PMC5998384.

Experiments:
HeLa Kyoto [1] = experiment: thermal stability score vs G1/S (z-score of summed log2 fold changes over temperatures); higher = more thermally stable than in G1/S
HeLa Kyoto [2] = experiment: solubility change mitosis vs G1/S (difference of NP-40 vs SDS log2 ratios) (log2 ratio difference); higher = more soluble in mitosis
HeLa Kyoto [3] = experiment: solubility in G1/S (NP-40 vs SDS abundance) (log2 ratio); higher = more soluble; conditions: cell cycle stage: G1/S
[4] = cell cycle stage: early G1 (4.5 h after nocodazole release)
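For solubility change mitosis vs G1/S (difference of NP-40 vs SDS log2 ratios) in this document: synchronized HeLa Kyoto cells (double thymidine block for G1/S, nocodazole release for mitosis), protein amounts in NP-40 versus SDS lysates quantified by mass spectrometry, three biological replicates.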
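For solubility in G1/S (NP-40 vs SDS abundance) in this document: HeLa Kyoto cells arrested at G1/S by double thymidine block, proteins quantified by TMT10plex mass spectrometry in mild NP-40 versus SDS extracts, three biological replicates.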
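For thermal stability score vs G1/S (z-score of summed log2 fold changes over temperatures) in this document: synchronized HeLa Kyoto cells, proteins quantified by TMT10plex mass spectrometry, three biological replicates, mitosis taken 0.5 h after nocodazole release, G1/S directly after double thymidine block.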

DGKA, sequence (chain, as listed by the source): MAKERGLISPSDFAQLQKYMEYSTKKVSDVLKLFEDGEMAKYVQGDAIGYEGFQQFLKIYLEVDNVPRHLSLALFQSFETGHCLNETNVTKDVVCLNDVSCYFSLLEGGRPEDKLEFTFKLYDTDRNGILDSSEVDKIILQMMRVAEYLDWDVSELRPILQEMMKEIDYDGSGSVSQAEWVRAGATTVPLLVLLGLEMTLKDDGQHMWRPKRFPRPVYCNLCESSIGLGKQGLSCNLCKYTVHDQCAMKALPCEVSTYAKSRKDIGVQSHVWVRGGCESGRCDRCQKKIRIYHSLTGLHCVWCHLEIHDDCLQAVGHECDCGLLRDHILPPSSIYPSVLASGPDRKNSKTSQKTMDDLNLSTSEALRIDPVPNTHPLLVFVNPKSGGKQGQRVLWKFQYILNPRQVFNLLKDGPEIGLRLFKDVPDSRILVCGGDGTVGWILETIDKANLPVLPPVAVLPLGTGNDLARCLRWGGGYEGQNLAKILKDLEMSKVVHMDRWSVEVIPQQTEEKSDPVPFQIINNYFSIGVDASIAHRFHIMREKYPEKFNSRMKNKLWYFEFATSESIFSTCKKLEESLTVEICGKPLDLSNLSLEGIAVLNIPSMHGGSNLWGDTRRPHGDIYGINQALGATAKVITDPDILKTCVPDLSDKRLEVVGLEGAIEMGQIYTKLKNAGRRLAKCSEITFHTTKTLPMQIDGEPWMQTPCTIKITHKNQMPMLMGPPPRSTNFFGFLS

Substance	thermal stability score (HeLa Kyoto [1]; [4])	thermal stability score (HeLa Kyoto [1]; cell cycle stage: mitosis)	solubility change mitosis (log2) (HeLa Kyoto [2])	solubility in G1/S (log2) (HeLa Kyoto [3])
MSSLGASFVQIKFDDLQFFENCGGGSFGSVYRAKWISQDKEVAVKKLLKIEKEAEILSVLSHRNIIQFYGVILEPPNYGIVTEYASLGSLYDYINSNRSEEMDMDHIMTWATDVAKGMHYLHMEAPVKVIHRDLKSRNVVIAADGVLKICDFGASRFHNHTTHMSLVGTFPWMAPEVIQSLPVSETCDTYSYGVVLWEMLTREVPFKGLEGLQVAWLVVEKNERLTIPSSCPRSFAELLHQCWEADAKKRPSFKQIISILESMSNDTSLPDKCNSFLHNKAEWRCEIEATLERLKKLERDLSFKEQELKERERRLKMWEQKLTEQSNTPLLPSFEIGAWTEDDVYCWVQQLVRKGDSSAEMSVYASLFKENNITGKRLLLLEEEDLKDMGIVSKGHIIHFKSAIEKLTHDYINLFHFPPLIKDSGGEPEENEEKIVNLELVFGFHLKPGTGPQDCKWKMYMEMDGDEIAITYIKDVTFNTNLPDAEILKMTKPPFVMEKWIVGIAKSQTVECTVTYESDVRTPKSTKHVHSIQWSRTKPQDEVKAVQLAIQTLFTNSDGNPGSRSDSSADCQWLDTLRMRQIASNTSLQRSQSNPILGSPFFSHFDGQDSYAAAVRRPQVPIKYQQITPVNQSRSSSPTQYGLTKNFSSLHLNSRDSGFSSGNTDTSSERGRYSDRSRNKYGRGSISLNSSPRGRYSGKSQHSTPSRGRYPGKFYRVSQSALNPHQSPDFKRSPRDLHQPNTIPGMPLHPETDSRASEEDSKVSEGGWTKVEYRKKPHRPSPAKTNKERARGDHRGWRNF [ZAK]	-0.231	-2.89	0.649	-1.14
DGKA	0.0904	0.484	-0.157	-0.0832
MEGLLTRCRALPALATCSRQLSGYVPCRFHHCAPRRGRRLLLSRVFQPQNLREDRVLSLQDKSDDLTCKSQRLMLQVGLIYPASPGCYHLLPYTVRAMEKLVRVIDQEMQAIGGQKVNMPSLSPAELWQATNRWDLMGKELLRLRDRHGKEYCLGPTHEEAITALIASQKKLSYKQLPFLLYQVTRKFRDEPRPRFGLLRGREFYMKDMYTFDSSPEAAQQTYSLVCDAYCSLFNKLGLPFVKVQADVGTIGGTVSHEFQLPVDIGEDRLAICPRCSFSANMETLDLSQMNCPACQGPLTKTKGIEVGHTFYLGTKYSSIFNAQFTNVCGKPTLAEMGCYGLGVTRILAAAIEVLSTEDCVRWPSLLAPYQACLIPPKKGSKEQAASELIGQLYDHITEAVPQLHGEVLLDDRTHLTIGNRLKDANKFGYPFVIIAGKRALEDPAHFEVWCQNTGEVAFLTKDGVMDLLTPVQTV [PARS2]	-2.04	-2.68	-0.176	-0.0434
MEEGAPRQPGPSQWPPEDEKEVIRRAIQKELKIKEGVENLRRVATDRRHLGHVQQLLRSSNRRLEQLHGELRELHARILLPGPGPGPAEPVASGPRPWAEQLRARHLEALRRQLHVELKVKQGAENMTHTCASGTPKERKLLAAAQQMLRDSQLKVALLRMKISSLEASGSPEPGPELLAEELQHRLHVEAAVAEGAKNVVKLLSSRRTQDRKALAEAQAQLQESSQKLDLLRLALEQLLEQLPPAHPLRSRVTRELRAAVPGYPQPSGTPVKPTALTGTLQVRLLGCEQLLTAVPGRSPAAALASSPSEGWLRTKAKHQRGRGELASEVLAVLKVDNRVVGQTGWGQVAEQSWDQTFVIPLERARELEIGVHWRDWRQLCGVAFLRLEDFLDNACHQLSLSLVPQGLLFAQVTFCDPVIERRPRLQRQERIFSKRRGQDFLRASQMNLGMAAWGRLVMNLLPPCSSPSTISPPKGCPRTPTTLREASDPATPSNFLPKKTPLGEEMTPPPKPPRLYLPQEPTSEETPRTKRPHMEPRTRRGPSPPASPTRKPPRLQDFRCLAVLGRGHFGKVLLVQFKGTGKYYAIKALKKQEVLSRDEIESLYCEKRILEAVGCTGHPFLLSLLACFQTSSHACFVTEFVPGGDLMMQIHEDVFPEPQARFYVACVVLGLQFLHEKKIIYRDLKLDNLLLDAQGFLKIADFGLCKEGIGFGDRTSTFCGTPEFLAPEVLTQEAYTRAVDWWGLGVLLYEMLVGECPFPGDTEEEVFDCIVNMDAPYPGFLSVQGLEFIQKLLQKCPEKRLGAGEQDAEEIKVQPFFRTTNWQALLARTIQPPFVPTLCGPADLRYFEGEFTGLPPALTPPAPHSLLTARQQAAFRDFDFVSERFLEP [PKN3]	-0.36	-0.411	0.0781	-0.177
MDAATLTYDTLRFAEFEDFPETSEPVWILGRKYSIFTEKDEILSDVASRLWFTYRKNFPAIGGTGPTSDTGWGCMLRCGQMIFAQALVCRHLGRDWRWTQRKRQPDSYFSVLNAFIDRKDSYYSIHQIAQMGVGEGKSIGQWYGPNTVAQVLKKLAVFDTWSSLAVHIAMDNTVVMEEIRRLCRTSVPCAGATAFPADSDRHCNGFPAGAEVTNRPSPWRPLVLLIPLRLGLTDINEAYVETLKHCFMMPQSLGVIGGKPNSAHYFIGYVGEELIYLDPHTTQPAVEPTDGCFIPDESFHCQHPPCRMSIAELDPSIAVGFFCKTEDDFNDWCQQVKKLSLLGGALPMFELVELQPSHLACPDVLNLSLDSSDVERLERFFDSEDEDFEILSL [ATG4B]	-0.634	1.02	-0.28	-0.00856
MAAVAAEAAATAASPGEGGAGEAEPEMEPIPGSEAGTDPLPVTATEASVPDGETDGQQSAPQADEPPLPPPPPPPGELARSPEAVGPELEAEEKLSVRVAESAAAAPQGGPELPPSPASPPEQPPAPEEREEPPLPQPVAPALVPPAGGDSTVSQLIPGSEVRVTLDHIIEDALVVSFRFGEKLFSGVLMDLSKRFGPHGIPVTVFPKREYKDKPEAMPLQSNTFQEGTEVKCEANGAVPDDPSPVPHPELSLAESLWTSKPPPLFHEGAPYPPPLFIRDTYNQSIPQPPPRKIKRPKRKMYREEPTSIMNAIKLRPRQVLCDKCKNSVVAEKKEIRKGSSATDSSKYEDKKRRNESVTTVNKKLKTDHKVDGKNQNESQKRNAVVKVSNIAHSRGRVVKVSAQANTSKAQLSTKKVLQSKNMDHAKAREVLKIAKEKAQKKQNETSTSKNAHSKVHFTRRYQNPSSGSLPPRVRLKPQRYRNEENDSSLKTGLEKMRSGKMAPKPQSRCTSTRSAGEAPSENQSPSKGPEEASSEVQDTNEVHVPGDQDEPQTLGKKGSKNNISVYMTLNQKKSDSSSASVCSIDSTDDLKSSNSECSSSESFDFPPGSMHAPSTSSTSSSSKEEKKLSNSLKMKVFSKNVSKCVTPDGRTICVGDIVWAKIYGFPWWPARILTITVSRKDNGLLVRQEARISWFGSPTTSFLALSQLSPFLENFQSRFNKKRKGLYRKAITEAAKAAKQLTPEVRALLTQFET [PWWP2A]	1.31	1.07	0.43	-0.7
MAAAAVDSAMEVVPALAEEAAPEVAGLSCLVNLPGEVLEYILCCGSLTAADIGRVSSTCRRLRELCQSSGKVWKEQFRVRWPSLMKHYSPTDYVNWLEEYKVRQKAGLEARKIVASFSKRFFSEHVPCNGFSDIENLEGPEIFFEDELVCILNMEGRKALTWKYYAKKILYYLRQQKILNNLKAFLQQPDDYESYLEGAVYIDQYCNPLSDISLKDIQAQIDSIVELVCKTLRGINSRHPSLAFKAGESSMIMEIELQSQVLDAMNYVLYDQLKFKGNRMDYYNALNLYMHQVLIRRTGIPISMSLLYLTIARQLGVPLEPVNFPSHFLLRWCQGAEGATLDIFDYIYIDAFGKGKQLTVKECEYLIGQHVTAALYGVVNVKKVLQRMVGNLLSLGKREGIDQSYQLLRDSLDLYLAMYPDQVQLLLLQARLYFHLGIWPEKSFCLVLKVLDILQHIQTLDPGQHGAVGYLVQHTLEHIERKKEEVGVEVKLRSDEKHRDVCYSIGLIMKHKRYGYNCVIYGWDPTCMMGHEWIRNMNVHSLPHGHHQPFYNVLVEDGSCRYAAQENLEYNVEPQEISHPDVGRYFSEFTGTHYIPNAELEIRYPEDLEFVYETVQNIYSAKKENIDE [FBXO21]	0.858	1.12	-0.0785	-0.126
MAVEDEGLRVFQSVKIKIGEAKNLPSYPGPSKMRDCYCTVNLDQEEVFRTKIVEKSLCPFYGEDFYCEIPRSFRHLSFYIFDRDVFRRDSIIGKVAIQKEDLQKYHNRDTWFQLQHVDADSEVQGKVHLELRLSEVITDTGVVCHKLATRIVECQGLPIVNGQCDPYATVTLAGPFRSEAKKTKVKRKTNNPQFDEVFYFEVTRPCSYSKKSHFDFEEEDVDKLEIRVDLWNASNLKFGDEFLGELRIPLKVLRQSSSYEAWYFLQPRDNGSKSLKPDDLGSLRLNVVYTEDHVFSSDYYSPLRDLLLKSADVEPVSASAAHILGEVCREKQEAAVPLVRLFLHYGRVVPFISAIASAEVKRTQDPNTIFRGNSLASKCIDETMKLAGMHYLHVTLKPAIEEICQSHKPCEIDPVKLKDGENLENNMENLRQYVDRVFHAITESGVSCPTVMCDIFFSLREAAAKRFQDDPDVRYTAVSSFIFLRFFAPAILSPNLFQLTPHHTDPQTSRTLTLISKTVQTLGSLSKSKSASFKESYMATFYEFFNEQKYADAVKNFLDLISSSGRRDPKSVEQPIVLKEGFMIKRAQGRKRFGMKNFKKRWFRLTNHEFTYHKSKGDQPLYSIPIENILAVEKLEEESFKMKNMFQVIQPERALYIQANNCVEAKDWIDILTKVSQCNQKRLTVYHPSAYLSGHWLCCRAPSDSAPGCSPCTGGLPANIQLDIDGDRETERIYSLFNLYMSKLEKMQEACGSKSVYDGPEQEEYSTFVIDDPQETYKTLKQVIAGVGALEQEHAQYKRDKFKKTKYGSQEHPIGDKSFQNYIRQQSETSTHSI [RASA3]	0.315	0.353	-0.19	-0.118
MALAVLRVLEPFPTETPPLAVLLPPGGPWPAAELGLVLALRPAGESPAGPALLVAALEGPDAGTEEQGPGPPQLLVSRALLRLLALGSGAWVRARAVRRPPALGWALLGTSLGPGLGPRVGPLLVRRGETLPVPGPRVLETRPALQGLLGPGTRLAVTELRGRARLCPESGDSSRPPPPPVVSSFAVSGTVRRLQGVLGGTGDSLGVSRSCLRGLGLFQGEWVWVAQARESSNTSQPHLARVQVLEPRWDLSDRLGPGSGPLGEPLADGLALVPATLAFNLGCDPLEMGELRIQRYLEGSIAPEDKGSCSLLPGPPFARELHIEIVSSPHYSTNGNYDGVLYRHFQIPRVVQEGDVLCVPTIGQVEILEGSPEKLPRWREMFFKVKKTVGEAPDGPASAYLADTTHTSLYMVGSTLSPVPWLPSEESTLWSSLSPPGLEALVSELCAVLKPRLQPGGALLTGTSSVLLRGPPGCGKTTVVAAACSHLGLHLLKVPCSSLCAESSGAVETKLQAIFSRARRCRPAVLLLTAVDLLGRDRDGLGEDARVMAVLRHLLLNEDPLNSCPPLMVVATTSRAQDLPADVQTAFPHELEVPALSEGQRLSILRALTAHLPLGQEVNLAQLARRCAGFVVGDLYALLTHSSRAACTRIKNSGLAGGLTEEDEGELCAAGFPLLAEDFGQALEQLQTAHSQAVGAPKIPSVSWHDVGGLQEVKKEILETIQLPLEHPELLSLGLRRSGLLLHGPPGTGKTLLAKAVATECSLTFLSVKGPELINMYVGQSEENVREVFARARAAAPCIIFFDELDSLAPSRGRSGDSGGVMDRVVSQLLAELDGLHSTQDVFVIGATNRPDLLDPALLRPGRFDKLVFVGANEDRASQLRVLSAITRKFKLEPSVSLVNVLDCCPPQLTGADLYSLCSDAMTAALKRRVHDLEEGLEPGSSALMLTMEDLLQAAARLQPSVSEQELLRYKRIQRKFAAC [PEX6]	-0.844	-0.711	-0.158	0.167
